Read-outs that look alike come from different tables or passages of the source.
Columns and labels:
Test in all cases: FRET
[1] = target: OmSMAX1-D1M domain (Orobanche minor OF MAX2 1, D1M domain) (Orobanche minor)
[2] = target: OmSMAX1-D1M domain (Orobanche minor OF MAX2 1, D1M domain) (Orobanche minor); remark: listed apart in the source
[3] = target: OmSMAX1-D1M domain (Orobanche minor OF MAX2 1, D1M domain) (Orobanche minor); remark: listed apart in the source
[4] = target: OmSMAX1-D1M domain (Orobanche minor OF MAX2 1, D1M domain) (Orobanche minor); remark: listed apart in the source

Row | EC50 [1] | EC50 [2] | EC50 [3] | EC50 [4] | Substance
1 | 231 µM | 0.15 µM | – | – | OmKAI2d4 (Orobanche minor divergent 2 receptor d4)
2 | – | 133 µM | 209 µM | – | OmKAI2d10 (Orobanche minor divergent 2 receptor d10)
3 | – | 231 µM | – | 0.18 µM | OmKAI2d3 (Orobanche minor divergent 2 receptor d3)
4 | – | 202 µM | – | – | OmKAI2d9 (Orobanche minor divergent 2 receptor d9)

From paper doi:10.64898/2025.12.31.697154
